The source of these data is US20160176955A1 (LEIDOS, published 2016).

First the molecules themselves.
B1: monoclonal antibody (mAb) 5D5 (antibody, V domains shown)
VH: QVHLQQSGGEVARPGASVKLSCKASGYTFTGYGLSWVKQRTGQGLEWIGEIYPRSGNTYYNEKFKGKATLTADKSSSTAYMELRSLTSEDSAVYFCARSWGNSSFVYWGQGTLVTVSA
VL: SIVMTQTPKFLLVSAGDRVTITCKASQSVTNDVTWYQQKPGQSPKLLIYYASNRYTGVPDRFTGSGYGTDFTFTISTVQAEDLAVYFCQQDYSSPFTFGSGTKLEIKR
notes: Murine IgG1/kappa hybridoma antibody; also called 5D5 mAb; MRA-1242
B2: peptide 8 (amino acids 71-85 of CSP) (peptide)
peptide: SLGENDDGNNEDNEK
B3: peptide 10 (amino acids 91-106 of CSP) (peptide)
peptide: HKKLKQPADGNPDP

The target of assay [1] is B3. Briefly: indirect ELISA, 15-mer peptide mapping. Background: In an ELISA, binding on a coated surface is turned into a signal by an enzyme label.
Assay [2] deals with B2. Briefly: indirect ELISA, 15-mer peptide mapping.
Assay [3] addresses B1. Kind of assay: competitive ELISA, competitor against rCSP for binding to mAb 5D5; row 0.01 µg/ml.
In assay [4] the target is B1. Briefly: competitive ELISA, competitor against rCSP for binding to mAb 5D5; row 0.001 µg/ml.

For the molecule B1, the binding result in assay [1] and in assay [2] was “no binding” in each case.
Regarding NEKLRKPKHK [peptide C], the “ELISA signal (name and unit not given)” value in assay [3] was found to be 3.49; in assay [4], 0.976.
Turning to B2, the “ELISA signal (name and unit not given)” value in assay [3] was 3.35; in assay [4], 0.952.
The corresponding values for NEDNEKLRK [peptide B] are 3.51 and 1.03.
On to B3, for which the entries for the “ELISA signal (name and unit not given)” value in assay [3] and in assay [4] were 3.34 and 0.92, respectively.
For LRKPKHKKLKQ [peptide D], the “ELISA signal (name and unit not given)” value stood at 3.45 in assay [3] and 0.989 in assay [4].
The corresponding values for PKHKKLKQPAD [peptide E] are 3.39 and 0.925.
As to DGNNEDNEK [peptide A], the “ELISA signal (name and unit not given)” value stood at 3.57 in assay [3] and 1.05 in assay [4].
As to EDNEKLRKPKHKKLK [peptide 9 (amino acids 81-95 of CSP)], the “ELISA signal (name and unit not given)” value came to 0.246 in assay [3] and 0.19 in assay [4].
